B1: library; numbered along this chain (parent)
chain: MNIQIGELAKRTACPVVTIRFYEQEGLLPPPGRSRGNFRLYGEEHVERLQFIRHCRSLDMPLSDVRTLLSYRKRPDQDCGEVNMLLDEHIRQVESRIGALLELKHHLVELREACSGARPAQSCGILQGLSDCVCDTRGTTAHPSD

± gives the standard deviation of the averaged measurements.

Series [1] covers variants of B1. The series can be described thus: sfGFP reporter fluorescence (15 h) (µM FITC); higher = higher leak. As to conditions: library round: Round 0; ligand: none. The method, boiled down:
(§1)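 Linear PbrR templates were made by PCR, normalized to 5 nM with an Echo, and expressed in BL21 Star (DE3) PANOx-SP extract with the pPbrR-sfGFP reporter plasmid and 30 μg/mL GamS. Echo-assembled 1 μL reactions held 1 µM lead chloride, 30 µM zinc acetate or no metal and were incubated 15 hr at 30 °C. Endpoint sfGFP fluorescence was read on a Synergy Neo2 and expressed as µM FITC using standard curves. Up to three biological replicates were run.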

In series [2] the parent is B1. Briefly: sfGFP reporter fluorescence (15 h) (µM FITC); higher = stronger transcriptional activation. The following applies: library round: Round 0. An outline of the steps:
as §1

Consider MNIQIGELAKRTACPVVTIRFYEQEGLLPPPGRSRGNFRLYGEEHVERLQFIRHCRSLDMNLSKVRTLLSYRKRPDQDCGEVNMLLDEHIRQVESRIGALLELKHHCVELREACSGARPAQSCGILQGLSDCVCDTRGTTAHPSD [P61N D64K L107C], for which the figures for the sfGFP reporter fluorescence in series [1], in series [2] (ligand: 1 µM Pb) and in series [2] (ligand: 30 µM Zn) were 2.69 ± 0.12, 3.57 ± 0.046 and 3.69 ± 0.12, respectively.

Consider MNIQIGELAKRTACPVVTIRFYEQEGLLPPPGRSRGNFRLYGEEHVERLQFIRHCRSLDLPLSDVRTLLSYRKRPDQDCGEVNMLLDEHIRQVESRIGALLELVHHLVELREACSGARPAQSCGILQILSDCVCDTRGTTAHPSD [M60L K104V G128I], for which the sfGFP reporter fluorescence was determined as 0.312 ± 0.017 in series [1], 1.27 ± 0.04 in series [2] (ligand: 1 µM Pb) and 3.28 ± 0.16 in series [2] (ligand: 30 µM Zn).

With MNIQIGELAKRTACPVVTIRFYEQEGLLPPPGRSRGNFRLYGEEHVERLQFIRHCRSLDMPLSDVRTLLSYRKRPDQDCGEVNMLLDEHIRQVESRIGALLELKHHLTELREACSGARPAQSCGILQGLSDCVCDTRGTTAHPSD [V108T], the sfGFP reporter fluorescence in series [1] turned out to be 0.0588 ± 0.00078; in series [2] (ligand: 1 µM Pb) it was 0.0724 ± 0.00078; in series [2] (ligand: 30 µM Zn), 0.795 ± 0.063.

Consider MNIQIGELAKRTACPVVTIRFYEQEGLLPPPGRSRGNFRLYGEEHVERLQFIRHCRSLDMPLSDVRTLLSYRKRPDQDCGEVNMLLDEHIRQVESRIGALLELKHHLVELREACSGARPAQSEGILQGLSDCVCDTRGTTAHPSD [C123E], for which the sfGFP reporter fluorescence in series [1] was 0.0583 ± 0.001; in series [2] (ligand: 1 µM Pb), 0.0588 ± 0.00078; in series [2] (ligand: 30 µM Zn), 0.0557 ± 0.001.

For the variant MNIQIGELAKRTACPVVTIRFYEQEGLLPPPGRSRGNFRLYGEEHVERLQFIRHCRSLDMPLSDVRTLLSYRKRPDQDCGEVNMLLDEHIRQVESRIGALLELKHHLVELREACSGARPAQSCGILQGLSDCVCDTRGTTAHQSD [P143Q], the figures for the sfGFP reporter fluorescence in series [1], in series [2] (ligand: 1 µM Pb) and in series [2] (ligand: 30 µM Zn) were 0.0566 ± 0.0039, 0.0735 ± 0.0049 and 0.871 ± 0.098, respectively.

As for MNIQIGELAKRTACPVVTIRFYEQEGLLPPPGRSRGNFRLYGEEHVERLQFIRHCRSLDMPLSDVRTLLSYRKRPDQDCGEVNMLLDEHIRQVESRIGALLELKHHLVELREACSGARPAQSCGILQGLSDCVCDTRGTTAHVSD [P143V], the figures for the sfGFP reporter fluorescence in series [1], in series [2] (ligand: 1 µM Pb) and in series [2] (ligand: 30 µM Zn) were 0.0559 ± 0.0013, 0.0726 ± 0.0026 and 0.757 ± 0.14, respectively.

In the case of MNIQIGELAKRTACPVVTIRFYEQEGLLPPPGRSRGNFVLYGEEHVERLQFIRHCRSLDMPLSDVRTLLSYRKRPDQDCGEVNMLLDEHIRQVESRIGALLELKHHLVELREACSGARPAQSCGILQGLSDCVCDTRGTTAHPSD [R39V], the sfGFP reporter fluorescence in series [1] is 0.0588 ± 0.00078; in series [2] (ligand: 1 µM Pb) it was 0.05882 ± 0.00026; in series [2] (ligand: 30 µM Zn), 0.05736 ± 0.00026.

For the variant MNIQIGELAKRTACPVVTIRFYEQEGLLPPPGRSRGNFRLYGEEHVERLQFIRHCRSLDMPLSDVRTLLSYRKRPDQDCGEVNMLLDEHIRQVESRIGALLELKHHLVELREACSGARPAQSCGINQGLSDCVCDTRGTTAHPSD [L126N], the sfGFP reporter fluorescence amounted to 0.05901 ± 0.00052 in series [1], 0.05882 ± 0.00026 in series [2] (ligand: 1 µM Pb) and 0.05333 ± 0.00026 in series [2] (ligand: 30 µM Zn).

Turning to MNIQIGELAKRTACPVVTIRFYEQEGLLPPPGRSRGNFRLYGEEHVERLQFIRHCRSLDMPLSDVRTLLSYRKRPDQDCGEVNMLLDEHIRQVESRYGALLELKHHLVELREACSGARPAQSCGILQGLSDCVCDTRGTTAHPSD [I97Y], the sfGFP reporter fluorescence in series [1] amounted to 0.0603 ± 0.0034; in series [2] (ligand: 1 µM Pb), 0.0825 ± 0.0026; in series [2] (ligand: 30 µM Zn), 0.721 ± 0.031.

In the case of MNIQIGELAKRTACPVVTIRFYEQEGLLPPPGRSRGNFRLYGEEHVERLQFIRHCRSLDMPLSDVRTLLSYRKRPDQDCGEVNMLLDEHIRQVESRIGALLELKHHLVELREACSGARPAQSCGILQGLSDCVCSTRGTTAHPSD [D135S], the sfGFP reporter fluorescence in series [1] is 0.06011 ± 0.00052; in series [2] (ligand: 1 µM Pb), 0.08723 ± 0.00052; in series [2] (ligand: 30 µM Zn), 0.988 ± 0.095.

Take MNIQIGELAKRTACPVVTIRFYEQEGLLPPPGRSRGNFRLGGEEHVERLQFIRHCRSLDMPLSDVRTLLSYRKRPDQDCGEVNMLLDEHIRQVESRIGALLELKHHLVELREACSGARPAQSCGILQGLSDCVCDTRGTTAHPSD [Y41G]: the sfGFP reporter fluorescence was 0.0563 ± 0.00078 in series [1], 0.0564 ± 0.001 in series [2] (ligand: 1 µM Pb) and 0.0579 ± 0.0026 in series [2] (ligand: 30 µM Zn).

On to MNIQIGELAKRTACPVVTIRFYEQEGLLPPPGRSRGNFRLLGEEHVERLQFIRHCRSLDMPLSDVRTLLSYRKRPDQDCGEVNMLLDEHIRQVESRIGALLELKHHLVELREACSGARPAQSCGILQGLSDCVCDTRGTTAHPSD [Y41L], for which the sfGFP reporter fluorescence was 0.0597 in series [1], 0.0596 ± 0.0029 in series [2] (ligand: 1 µM Pb) and 0.0729 ± 0.0083 in series [2] (ligand: 30 µM Zn).

Take MNIQIGELAKRTACPVVTIRFYEQEGLLPPPGRSRGNFRLYGEEHVERLQFIRHCRSLDMPMSDVRTLLSYRKRPDQDCGEVNMLLDEHIRQVESRIGALLELKHHLVELREACSGARPAQSCGILQGLSDCVCDTRGTTAHPSD [L62M]: the values for the sfGFP reporter fluorescence in series [1], in series [2] (ligand: 1 µM Pb) and in series [2] (ligand: 30 µM Zn) were 0.066 ± 0.001, 0.0962 ± 0.0049 and 0.533 ± 0.033, respectively.

Take MNIQIGELAKRTACPVVTIRFYEQEGLLPPPGRSRGNFRLYGEEHVERLQFIRHCRSLDMPLSDVRTLLSYRKRPDQDCGEVNMLLDEHIRQVESRIGALLELKHHLVELREACSGARPAQSCGILQKLSDCVCDTRGTTAHPSD [G128K]: the sfGFP reporter fluorescence turned out to be 0.122 ± 0.0031 in series [1], 0.192 ± 0.007 in series [2] (ligand: 1 µM Pb) and 3.05 ± 0.22 in series [2] (ligand: 30 µM Zn).

Source of the values: the supplement of paper PMC12783771.
